Measurements reported in patent US8936785 (ESBATECH AN ALCON BIOMEDICAL RESEARCH UNIT, dated 2015).
Substitutions are numbered along the chain they refer to.

B1: ESBA105 (scFv)
scFv: DIVMTQSPSSLSASVGDRVTLTCTASQSVSNDVVWYQQRPGKAPKLLIYSAFNRYTGVPSRFSGRGYGTDFTLTISSLQPEDVAVYYCQQDYNSPRTFGQGTKLEVKRGGGGSGGGGSGGGGSSGGGSQVQLVQSGAEVKKPGASVKVSCTASGYTFTHYGMNWVRQAPGKGLEWMGWINTYTGEPTYADKFKDRFTFSLETSASTVYMELTSLTSDDTAVYYCARERGDAMDYWGQGTLVTVSS
B2: ESBA105-H_F68A (scFv)
scFv: B1 scFv with F196A
B3: ESBA105-QC15.2 (scFv)
scFv: B1 scFv with K171R, F196I

Legend:
[1] = target: T1, TNFα (tumour necrosis factor alpha) (UniProt P01375 77-233, limits assumed); assay: cell-based or functional assay
[2] = target: T1, TNFα (tumour necrosis factor alpha); assay: cell-based or functional assay; remark: listed apart in the source

T1 sequence (P01375 77-233 limits assumed): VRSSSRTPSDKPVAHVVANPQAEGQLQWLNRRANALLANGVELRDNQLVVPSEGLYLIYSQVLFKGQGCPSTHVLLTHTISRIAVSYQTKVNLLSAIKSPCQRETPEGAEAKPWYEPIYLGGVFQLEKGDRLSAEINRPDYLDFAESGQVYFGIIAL

Binder	Relative potency: EC50X/EC50ESBA105, KYM-1 cells [1]	Relative potency: EC50X/EC50ESBA105, L929 cells [1]	EC50 (read off the curve), L929 assay, ESBA105 stored 8 weeks at 37° C. (triangles, dashed line) [2]
B1	1 ratio EC50X/EC50ESBA105	1 ratio EC50X/EC50ESBA105	~10 ng/mL
B2		1.14 ratio EC50X/EC50ESBA105	
B3	1.5 ratio EC50X/EC50ESBA105	1.37 ratio EC50X/EC50ESBA105	
